Assay results taken from the nanobody polyreactivity screen of Harvey et al. (2022).

Assay: yeast display, Sf9 membrane polyspecificity reagent, FACS + sequencing; frameworks hold sequencing errors
Procedure, shortened: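 Polyreactivity labels are assigned by the sorting gate from which each nanobody was recovered. The gates were low and high (top ~1%), set on anti-HA fluorescence for expression and streptavidin fluorescence for reagent binding. Before sorting, galactose-induced (36–48 hours) yeast display cells were stained for 1 hour at 4 °C with 10% biotinylated, detergent-solubilized Sf9 membrane reagent.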

Sequence | polyreactivity (PSR sort gate)
QVQLVESGGGLVQAGGTLRLSCAASGSTFGRYAMGWYRQAPGKERELVAAITSDTGNTNYADSVKGRFTISRDNAKNTVYLQMNSLKPEDTAVYYCAARLYARRVYDYWGQGTQVTVSS | low polyreactivity
QVQLVESGGGLVQAGGTLRLSCAASGSTFKSNAMGWYRQEPGKERELVAAINRSGAGTYYADSVKGRFTISRDNAKNTVYLQMNSLKPEDTAVYYCAAQSYSRRYDYWGQGTQVTVSS | high polyreactivity
QVQLVESGGGLVQAGGTLRLSCAASGSTFPRNTMGWYRHEPGKERELVAAISSSGVRTYYADSVKGRFTISRDNAKNTVYLQMNSLKAEDTAVYYCAAGSQSRDYYYWGQGTLVTVSS | high polyreactivity
QVQLVESGGGLVQAGGTLRLSCAASGSTYDTYTMGGYSQAPGKERVLVAAITSSGDSTYYADSVKGRSTISRDNAKNTVYLQMNSLKPEDTAVYYCAAEVTVWLYYLYVGEYEYWGQGTQVTVSS | high polyreactivity
QVQLVESGGGLVQAGGTLRLSCAASGYIFFPYAMGWYRQAPGKERELVAAISGSGTSTYYADSVKGRFTISRDNAKNTVYLQMNSLKPEDTAVYYCAAKYGQYDYDYWGQGTQVTVSS | low polyreactivity
QVQLVESGGGLVQAGGTLRLSCAASGYTFYFYAMGWYRQAPGKEREFVAAIRSSGGRTYYADSVKGRFTISRDNAKNTVYLQMNCLKPEDTAVYSCAAAGYYYSVDGAGPRYDYWGQGTQVTGSS | low polyreactivity
QVQLVESGGGLVQAGGTLRLSCAATGRIFARYAMGWYRQAPGKERELVAAITVSGDNTYYADSVKGRFTISRYNAKNTVYLQMNSLKPEDTAVYYCAVRAVLLFGFFEYDYWGQGTQVTVSS | low polyreactivity
QVQLVESGGGLVQAGGTLRLSCAPSGSIFRVYTMGWYRQAPGKERELVATISRSGVSTNYADSVKGRFTISRDNAKNTVYLQMNSLKPEDTAVYYCNAYYRTKGGFRFGYWGQGTQVTVSS | high polyreactivity
QVQLVESGGGLVQAGGTLRLSCDASGLIFEYYAMGWYRQAPGKERELVAVINWSGASTYYADSVKGRFTISRDNAKNTVFLQMNSLKPEDTAVYYCAAGVLITGLRFDYWGQGSQVTVSS | low polyreactivity
QVQLVESGGGLVQAGGTLRLSCSASGRTFPGYAMGWYRQAPGKERELVAVISLSGGRTNYADSVKGRFTISRDNAKNTVFLLMNSLKPEDTAVYYCAGRYHGHSNDYWGQGTQVTVSS | low polyreactivity
QVQLVESGGGLVQAGGTLRLSCSASGRTFQVYAMGWYRQAPGKERELVAGITRAGSTYYADSVKGRFTISRDNAKNTVYLQMNSLKPEDTAVYYCAASRWHGYNYWGQGTQVTVSS | high polyreactivity
QVQLVESGGGLVQAGGTLRLTCAASGRTFYRYVMGWYRHAPVKERELFAAINWSGGSTYYADSVKGRFTISRDNAKNTVYLQMNSLKPEDTAVYYCAADLYTLRYGYRYEYWGQGTQVTVSS | high polyreactivity
QVQLVESGGGLVQAGRRLRLSCAASGRIFSRNAMGWYRQAPGKERELVAVITKRGGSTYYADSVKGRFTISRDNAKNTVYLQMNSLKPEDSAVYYCNRRPYTGLGRLDYWGQGTQVTVSS | high polyreactivity
QVQLVESGGGLVQAGRSIRLTCAASGITFSEYAMGWYRQAPGKEREFVAAISRRGGSTYYADYVKGRFTISSDNAKNTVYLQMNSLKAEDTAVYYCNRRYVTFRFEQDYDYWGQGNQVTVSS | low polyreactivity
QVQLVESGGGLVQAGRSLCLSCAASGSIFINAMGWYRQAPGKERELVATIRWRGGTTYYADSVKGRFTISRDNAKNTVDLQMNSLKPEATAVYYCAADRSYYPDTRTTYGYNYWGQGTQVTVSS | low polyreactivity
QVQLVESGGGLVQAGRSLRLICAASGRTFTLNAMRWYRQAPGKERELVDAITWGAGSTYYADSVKGRFTISRDNAKNTVYLQMNSLKPEDTAVYYCAARFHGDYYRYRSPSMYYWGQGSQVTVSS | high polyreactivity
QVQLVESGGGLVQAGRSLRLNCAASGSIIKYNAMGWYRPAPGKERELVASISSSGGTTYYADSVKGRFTISRDNAKNTVYLQMNRLTPEDTAVYYCTKYVRAGNGYGEEDYWGQGTQVTVSS | high polyreactivity
QVQLVESGGGLVQAGRSLRLSCAASGFIFKSYAMGWYRQAPAKERELVAAISFSGGSTYYADSVKGLFTISRDNAKNTVYLQMNSLKPEDSAVYYCAADPRNGEYYYWGQGTQVTVSS | high polyreactivity
QVQLVESGGGLVQAGRSLRLSCAASGFTFRWYGMGWYRQAPGKERELVAAISWSGGTTYYADSVKGRFTISRDNAKKTVYLQMNSLKAEDTAVYYCAASFQTFASRYDYWGQGTQVTVSS | high polyreactivity
QVQLVESGGGLVQAGRSLRLSCAASGIIFAFYAMGWYRQAPGKERELVAAISIDGSTYYADSVKGRFTISRDNAKNTVYLQMNSLKPEDTAVYYCAAQYLNVYYWEDYWGQGTQVTVSS | low polyreactivity
QVQLVESGGGLVQAGRSLRLSCAASGRIFRFKTMGWYRQSPGKERELVAAITYSGGGTYYADSVKGRFTISRDNAKNTVYLQMNSLKPEDTAVYYCAATLYLRTIDDYWGQGTQVTVSS | high polyreactivity
QVQLVESGGGLVQAGRSLRLSCAASGRIFSDYAMGWYRQAPGKERELVATITSGDSTNYADSVKGRFTISRDNAKNTVYLQMNSLNPEDTAVYYCNADRFADYDYWGQGTQVTVST | low polyreactivity

Sequence | polyreactivity (PSR sort gate)
QVQLVESGGGLVQAGRSLRLSCAASGRTFLVYAMGWYRQAPGKERELVAVINSGTSTNYADSVKGRFTISRDNAKNTVYLQMNSQKPEDTAVYYCATAYRRRDRHYYWGQGTQVTVSS | low polyreactivity
QVQLVESGGGLVQAGRSLRLSCAASGRTYSVYAMGWYRKAPGKETELLAGITSGGSTNYADSVKGRFTISRDNAKNTVYLQMNSLNPEDTAVYYCAAENVYAGFGFVSIGDYWGQGTQVTVST | low polyreactivity
QVQLVESGGGLVQAGRSLRLSCAASGSISRFYAMGWYRQAPAKERELVGANSWSGGRTYYADSVKGRFTISRDNAKNTVYLQMNSLKPEDTAVYYCNAFRRYNDEDYWGQGTQVTVSS | high polyreactivity
QVQLVESGGGLVQAGRSLRLSCAASGSTFPWYTMGWYRQAPGKERELVAAIDGSAGDTYYADSVKGRFTISRDNAKNTVYLQMNSLKPEDTAVYYCATRTSRWGYLHYDYWGQGTQVTVSS | low polyreactivity
QVQLVESGGGLVQAGRSLRLTCAASGRTFLANAMGWYRQAPGKEREFVAAIDWRTGSTYYADSVKGRFTISRDNAKNSVYLQRNSLNPEDTAVYYCAKDSSSYYYAHFYYWGQGTQVTVSS | high polyreactivity
QVQLVESGGGLVQAGRTLRLRCAASVSTVPYAMGWYSPAPGKERELVAAISKSAGRSYYADYVKGRFTISRENAKNTVYLQMNSLKPEDTAVYYCAARQSYYGHDYWGQGTQVTVSS | high polyreactivity
QVQLVESGGGLVQAGRTLRLSCAASGRTFVPYAMGWYRPAPGKERELVAAISYSGDSTYYADSVKGRFTISRDNAKNTVYLQMNRLKPEDTAVYYCAARGGYPFYYWGQGTQVTVSS | low polyreactivity
QVQLVESGGGLVQAGRTLRLSCAASGRTLGLYAMGWYRQAPGKERELVAAITTSGGSTSYADSVKGRFTISRDNAKNTVYLEMNSLKPEDTSVYYCAVDVEVTFFQYSWIYGSWGQGTQVTVSS | low polyreactivity
QVQLVESGGGLVQAGRTLRLSCAASGSTFSVYGMVWYRQAPGKERELVAINIIGGSTYYADSVKGRFTISRDNAKYTVYLQMNSLKPEDTAVFYCAADSFPSEFDYWGQGTQVTVSS | low polyreactivity
QVQLVESGGGLVQAGRTLRLSCAPSGSIFSYYAMGWYRQAPGKERELVAAITSGGTTYYADSVKGRFTISRDNAKNTVYLQMNSVKPEDTAVYYCAADFVFRWYSYTGRWYSSYDYWGQGTQVTVSS | low polyreactivity
QVQLVESGGGLVQAGSSLRISCAASGRTLIYYAMGWYRQAPGKEREMVASINRRGDSTYYADSVKGRFTISRYNAKNTVYLQMYSLKPEDTAVYYCAKVLYGGYPENRYFVGWGREYLGQGTQVTVSS | high polyreactivity
QVQLVESGGGLVQAGVSLRLICDAYGRIFIVNAMGWYRQAPGKERELVAAISRGGSKNYADSVKGRFTISRDNAKNTVYLQMNSLKPEDTAVYYWNGDGSSYWYPVTQHGGDYCGQGTQVTVSS | low polyreactivity
QVQLVESGGGLVQAGVSLRLSCAASGFIFEPSAMGWYRQAPGKERELVAAISSGGSTNADSVKGRFTISRDNAKNTVYLQMNSLKPEDTAVYYCAADSYYSVWGFYYWGQGTQVTVSS | low polyreactivity
QVQLVESGGGLVQAGVSLRLSCAASGFIFSTYAMGGYRQAPGKERELFASIDWSGDSTYYADSVKGRFTISRDNAKNTVYLQMNSLKPEDTAVYYCAASLWPDYEYDYWGQGTQVTVSS | low polyreactivity
QVQLVESGGGLVQAGVSLRLSCAASGFTFTTYVMGSYRQAPGKERELVAAISRRGTSTRYADSVKGRFTISRDNAKNTVYLQMNSLKPEDTAVYYCAADRPYSIVPYDYWGQGTQVTVSS | high polyreactivity
QVQLVESGGGLVQAGVSLRLSCAASGITFNHYTMGWYRQAPGKERELVAAISSRGSTTYYADSVKGRFTISRDNAKNTVYLQMNSLKPEDTAVYYCAAVYYLYSAWRYDYWGQGTQVTVSS | high polyreactivity
QVQLVESGGGLVQAGVSLRLSCAASGITLYRYAMGWYRQATGKERELVADISSGGGTTYYADSVKGRFTISRDNAKNTVYLQMNSLKPEDTAVYYCAADYGFRYPLYDYWGQGTQVTVSS | low polyreactivity
QVQLVESGGGLVQAGVSLRLSCAASGRIFNYYTMGWYRQAPGKERELVAAINWSGGSTYYADSVKGRFTISRDNAKNTVYLQMNSLKPEDTAVYYCNALGYYGRAYYRGYDYWGQGTQVTVSS | high polyreactivity
QVQLVESGGGLVQAGVSLRLSCAASGRIFVGYAMGWYRQAPGKERELVAGIRYSGGSTYYADSVKGRFTISRDNAKNTVYLQMNSLKPEDTAVYYCATQVWHYAGRPNYKYDYWGQGTQVTVSS | low polyreactivity
QVQLVESGGGLVQAGVSLRLSCAASGRTFTHYPMGWYRQAPGKERELVAAISRSGGTTYYADSVKGRFTISRDNAKSTVYLQMNSLKPEDTAVYYCNAEVVDSELGVFVDYYWAYDYWGQGTQVTVSS | high polyreactivity
QVQLVESGGGLVQAGVSLRLSCAASGRTFVWYVKGWYRQAPGKERELVAAINRSGGRTYYADSVKGRFTISRDNAKNTVYLQMNSLKPEDTAVYYCAAARYVRYYSGYWGQGTQVTVSS | high polyreactivity
